Source: article PMC6226536

How the values were obtained:
Experiment in all cases: Y2H (α-galactosidase activity)
OVATE D280V = conditions: read off a plot
SlTRM5 fragment = conditions: read off a plot
SlTRM25 fragment = conditions: parent: est. 4.2; read off a plot
SlTRM17/20a fragment = conditions: read off a plot
OVATE E299V = conditions: read off a plot
SlOFP20 = conditions: read off a plot
OVATE = conditions: read off a plot
SlOFP20 D265V = conditions: read off a plot
OVATE^D280R = conditions: read off a plot
SlOFP20 D284V = conditions: read off a plot
SlOFP20^D265R = conditions: read off a plot

In the case of m5; m1 SlTRM25:K327V; OVATE:D280V, the response (milliunits/(ml×cell)) (OVATE D280V; parent: est. 4.2) is reported as 0.1.
Substance OVATE D280R has a response (milliunits/(ml×cell)) (SlTRM5 fragment; parent: est. 7.1) of 0.1, a response (milliunits/(ml×cell)) (SlTRM25 fragment) of 0.1 and a response (milliunits/(ml×cell)) (SlTRM17/20a fragment; parent: est. 7.2) of 0.1.
m5; m1 SlTRM25:K327V; OVATE:E299V showed a response (milliunits/(ml×cell)) (OVATE E299V; parent: est. 4.2) of 2.3.
SlTRM17/20a fragment K318V gave a response (milliunits/(ml×cell)) (SlOFP20; parent: est. 7.9) of 4.5 and a response (milliunits/(ml×cell)) (OVATE; parent: est. 7.2) of 4.2.
For SlOFP20 D284V, the response (milliunits/(ml×cell)) (SlTRM5 fragment; parent: est. 5.2) was 2.5, the response (milliunits/(ml×cell)) (SlTRM25 fragment) was 0.25 and the response (milliunits/(ml×cell)) (SlTRM17/20a fragment; parent: est. 7.9) was 7.2.
With m3; m2 SlTRM5:R374V; SlOFP20:D265V the response (milliunits/(ml×cell)) (SlOFP20 D265V; parent: est. 5.2) was 0.1.
In the case of OVATE D280V, the response (milliunits/(ml×cell)) (SlTRM5 fragment; parent: est. 7.1) is reported as 0.1, the response (milliunits/(ml×cell)) (SlTRM25 fragment) is reported as 0.1 and the response (milliunits/(ml×cell)) (SlTRM17/20a fragment; parent: est. 7.2) is reported as 1.6.
m3; m1 SlTRM5:R374V; OVATE:D280V was tested, and the response (milliunits/(ml×cell)) (OVATE D280V; parent: est. 7.1) was 0.1.
m4; m2 SlTRM17/20a:K318V; SlOFP20:D265V gave a response (milliunits/(ml×cell)) (SlOFP20 D265V; parent: est. 7.9) of 3.6.
In the case of m4; m1 SlTRM17/20a:K318V; OVATE:D280R, the response (milliunits/(ml×cell)) (OVATE^D280R; parent: est. 7.2) is reported as 0.25.
m4; m1 SlTRM17/20a:K318V; OVATE:D280V gave a response (milliunits/(ml×cell)) (OVATE D280V; parent: est. 7.2) of 0.9.
SlOFP20 D265R gave a response (milliunits/(ml×cell)) (SlTRM5 fragment; parent: est. 5.2) of 0.1, a response (milliunits/(ml×cell)) (SlTRM25 fragment) of 0.1 and a response (milliunits/(ml×cell)) (SlTRM17/20a fragment; parent: est. 7.9) of 5.3.
For SlOFP20 D265V, the response (milliunits/(ml×cell)) (SlTRM5 fragment; parent: est. 5.2) was 0.1, the response (milliunits/(ml×cell)) (SlTRM25 fragment) was 0.1 and the response (milliunits/(ml×cell)) (SlTRM17/20a fragment; parent: est. 7.9) was 6.
With m5; m2 SlTRM25:K327V; SlOFP20:D265V the response (milliunits/(ml×cell)) (SlOFP20 D265V; parent: est. 4.2) was 0.1.
m5; m2 SlTRM25:K327V; SlOFP20:D284V was tested, and the response (milliunits/(ml×cell)) (SlOFP20 D284V; parent: est. 4.2) was 0.25.
m3; m1 SlTRM5:R374V; OVATE:E299V gave a response (milliunits/(ml×cell)) (OVATE E299V; parent: est. 7.1) of 3.1.
m3; m2 SlTRM5:R374V; SlOFP20:D265R showed a response (milliunits/(ml×cell)) (SlOFP20^D265R; parent: est. 5.2) of 0.1.
With m5; m1 SlTRM25:K327V; OVATE:D280R the response (milliunits/(ml×cell)) (OVATE^D280R; parent: est. 4.2) was 0.1.
For SlTRM5 fragment R374V, the response (milliunits/(ml×cell)) (SlOFP20; parent: est. 5.2) was 3.4 and the response (milliunits/(ml×cell)) (OVATE; parent: est. 7.1) was 4.7.
OVATE E299V gave a response (milliunits/(ml×cell)) (SlTRM5 fragment; parent: est. 7.1) of 3.1, a response (milliunits/(ml×cell)) (SlTRM25 fragment) of 2.5 and a response (milliunits/(ml×cell)) (SlTRM17/20a fragment; parent: est. 7.2) of 5.
In the case of m3; m2 SlTRM5:R374V; SlOFP20:D284V, the response (milliunits/(ml×cell)) (SlOFP20 D284V; parent: est. 5.2) is reported as 2.4.
m4; m2 SlTRM17/20a:K318V; SlOFP20:D265R showed a response (milliunits/(ml×cell)) (SlOFP20^D265R; parent: est. 7.9) of 3.
Work on m5; m2 SlTRM25:K327V; SlOFP20:D265R yielded a response (milliunits/(ml×cell)) (SlOFP20^D265R; parent: est. 4.2) of 0.1.
With m4; m1 SlTRM17/20a:K318V; OVATE:E299V the response (milliunits/(ml×cell)) (OVATE E299V; parent: est. 7.2) was 4.1.
Work on m4; m2 SlTRM17/20a:K318V; SlOFP20:D284V yielded a response (milliunits/(ml×cell)) (SlOFP20 D284V; parent: est. 7.9) of 4.8.
SlTRM25 fragment K327V gave a response (milliunits/(ml×cell)) (SlOFP20; parent: est. 4.2) of 1.9 and a response (milliunits/(ml×cell)) (OVATE; parent: est. 4.2) of 2.1.
With m3; m1 SlTRM5:R374V; OVATE:D280R the response (milliunits/(ml×cell)) (OVATE^D280R; parent: est. 7.1) was 0.1.
